The record followed here is PMC5818064.

The target in this assay is RBD–GFP11 (Rho-binding domain of Rhotekin fused to GFP β-strand 11) (UniProt Q8C6B2). Description: split reporter (BiFC, NanoBiT); tripartite split-GFP; HEK_GFP1-9 cells stably expressing GFP1-9, transiently co-transfected with GFP10 and GFP11 fusions (1:1); fixed, double immunostaining with anti-GFP10 and anti-GFP11; flow cytometry, mean GFP fluorescence in the GFP10+ GFP11+ gate.
UniProt Q8C6B2, sequence (Q8C6B2 whole entry, the tested form may be a part): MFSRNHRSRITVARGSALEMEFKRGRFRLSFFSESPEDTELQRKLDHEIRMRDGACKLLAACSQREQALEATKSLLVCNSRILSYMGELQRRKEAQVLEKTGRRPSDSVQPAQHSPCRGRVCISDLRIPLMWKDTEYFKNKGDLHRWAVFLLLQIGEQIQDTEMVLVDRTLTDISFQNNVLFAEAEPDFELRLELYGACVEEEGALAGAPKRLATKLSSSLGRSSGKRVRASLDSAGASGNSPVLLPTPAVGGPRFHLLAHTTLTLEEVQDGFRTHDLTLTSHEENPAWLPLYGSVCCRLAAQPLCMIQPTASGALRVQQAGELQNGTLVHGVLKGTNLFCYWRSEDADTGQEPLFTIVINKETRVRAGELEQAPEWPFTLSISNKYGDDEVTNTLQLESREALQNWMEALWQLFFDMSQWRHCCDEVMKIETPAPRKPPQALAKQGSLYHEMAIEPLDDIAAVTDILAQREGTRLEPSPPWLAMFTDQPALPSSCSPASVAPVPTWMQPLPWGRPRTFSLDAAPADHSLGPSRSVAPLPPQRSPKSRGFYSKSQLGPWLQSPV

For “GFP10–RhoA L63 (constitutively active RhoA mutant fused to GFP β-strand 10) (from UniProt P61586 1-193) (natural protein)”, the fold change of mean GFP fluorescence against the dominant-negative mutant amounted to 5 fold.
Regarding “GFP10–RhoB L63 (constitutively active RhoB mutant fused to GFP β-strand 10) (from UniProt P62745 1-196) (natural protein)”, the fold change of mean GFP fluorescence against the dominant-negative mutant was determined as 5 fold.
